Results on three molecules are retold here after patent US20090130120A1 (published 2009).

Assay [1] has as its target F protein on live RSV virus (strain not stated) (respiratory syncytial virus (RSV)). Description: cell-based or functional assay.
In assay [2] the target is T1, RSV G protein of group A strain (Ga protein) (respiratory syncytial virus (RSV), …, UniProt P03423 1-298).
T1 construct: also called RSV-Ga; RSV-GA2 protein
T1 sequence: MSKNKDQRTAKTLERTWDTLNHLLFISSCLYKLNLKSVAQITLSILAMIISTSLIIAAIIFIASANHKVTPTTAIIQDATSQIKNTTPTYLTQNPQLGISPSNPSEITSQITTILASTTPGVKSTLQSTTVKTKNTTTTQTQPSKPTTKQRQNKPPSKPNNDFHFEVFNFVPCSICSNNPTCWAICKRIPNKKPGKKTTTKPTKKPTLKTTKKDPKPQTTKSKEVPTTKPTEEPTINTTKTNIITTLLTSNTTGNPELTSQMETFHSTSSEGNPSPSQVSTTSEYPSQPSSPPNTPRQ
Briefly: Biacore, antibody on chip, recombinant Ga in flow. Background: Surface plasmon resonance follows binding to a sensor surface in real time, without labels.

Assay [3] has as its target T2, 12-mer Ga derived peptide HFEVFNFVPCSI
T2 construct: also called (169) HFEVFNFVPCSI (176)
T2 peptide: HFEVFNFVPCSI
Briefly: array of overlapping 12-mer peptides, 1 ug/ml antibody, chemiluminescence.

In assay [1], Synagis® (palivizumab) (antibody) showed an IC50, plaque assay for neutralization of RSV on HEp2 cells with rabbit complement of 0.3 µg/mL and an affinity according to the plaque neutralization assay of 2 nM.

B1: 10C6 (antibody, V domains shown)
VH: QVQLVESGGGVVQPGRSLRLSCEASGFTFSGYAMHWVRQAPAKGLEWVAVISFDGSNNYYADSVKGRFTISRDNSKNMLFLQMNSLRAEDTAVYYCVRPDVIAVAGTALSNPFDLWGLGTMVTVSS
VL: EIVMTQSPATLSVSPGERALSCRASQSVRSNLVWYQQKPGQAPRLLIFGASTRATGIPARFSGSGSGTEFTLTISSLQSEDFALYFCQQNNNWPPTFGQGTRLEIK
Turning to B1, the Kd (as a rule, the equilibrium constant for the complex coming apart) in assay [2] came to 0.055 nM.

B2: murine monoclonal antibody 131-2G (antibody, V domains shown)
VH: EVQLQQSGPELVKPGTSVKISCKASGYSFTGFTMNWVKQSHGKNLEWFGLINPFNGNTGYNQKFKGKATLTVDKSSSTAFMELLSLTSEDSAVYYCARSGKSYDYEAWFTYWGQGTLVTVSA
VL: DIVMTQTTLSLPVSLGNQASISCRSSQTIVHTNGNTYLEWYLQKPGQSPKLLIYKVSNRFSGVPDRFSGSGSGTDFILNISRVEAEDLGVYYCFQGSHVPFTFGSGTKLEIKR
notes: Only variable regions are printed
Turning to B2, in assay [3], the binding result is recorded as “binds”.
